Here are results for six molecules from patent CN115368461A (JIANGSU HENGRUI MEDICINE CO; SHANGHAI HENGRUI …, dated 2022).

In test [1] the target is T1, CHO细胞表面表达的人TROP2 (huTROP-2 CHO-K1 cells) (human, UniProt P09758 27-323).
T1 construct: Untagged human TROP2 stably expressed on CHO-K1 cells; The cells were fixed with paraformaldehyde in the cell ELISA; also called CHO-K1/hTROP2
T1 sequence: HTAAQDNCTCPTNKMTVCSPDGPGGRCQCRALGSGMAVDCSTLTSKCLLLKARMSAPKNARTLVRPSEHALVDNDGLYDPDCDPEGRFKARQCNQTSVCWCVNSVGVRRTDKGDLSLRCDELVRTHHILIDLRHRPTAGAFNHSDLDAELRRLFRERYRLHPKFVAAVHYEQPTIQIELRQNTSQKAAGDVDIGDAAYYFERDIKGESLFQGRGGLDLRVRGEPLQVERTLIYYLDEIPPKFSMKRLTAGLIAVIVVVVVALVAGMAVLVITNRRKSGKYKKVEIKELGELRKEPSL
Nature of the test: cell ELISA on fixed huTROP-2 CHO-K1 cells. On the technique in general: ELISA stands for enzyme-linked immunosorbent assay.

Test [2] has as its target T2, 人TROP2-his (huTROP2-His), ACRO TR2-H5223 (human, UniProt P09758 27-274).
T2 construct: Bought His-tagged human TROP2 protein (ACRO)
T2 sequence: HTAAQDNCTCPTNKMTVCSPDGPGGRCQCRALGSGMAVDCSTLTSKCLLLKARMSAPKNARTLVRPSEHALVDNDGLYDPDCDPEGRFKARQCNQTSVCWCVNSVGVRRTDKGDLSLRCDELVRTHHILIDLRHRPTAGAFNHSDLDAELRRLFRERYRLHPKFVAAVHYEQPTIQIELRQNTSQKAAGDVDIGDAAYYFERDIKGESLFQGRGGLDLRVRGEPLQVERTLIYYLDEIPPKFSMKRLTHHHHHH
Put plainly: ForteBio Octet BLI; antibody on Protein A sensor, 100nM antigen. Background: BLI is a label-free optical method that tracks binding on a fibre tip over time.

Test [3] concerns the target T3, TROP2 on FaDu cells (high huTROP2 expression) and SK-OV-3 cells (low TROP2 expression) (human, UniProt P09758 27-323).
T3 sequence (looked up): T1 sequence
Nature of the test: cell-based or functional assay.

Test [4] concerns the target T2, 人TROP2-his (huTROP2-His), ACRO TR2-H5223. Put plainly: Biacore T200 SPR; antibody captured on Protein A chip, huTROP2-his as analyte, 1:1 model.

Substitutions are numbered along the chain they refer to.

B1: mAb29 (antibody, V domains shown)
VH: EVKLVESGGDLVQPGGSLKLSCAASGFSFSDYYMYWVRQTPEKRLEWVANIDNGGDTTYYPDTVKGRFTISRDNAKNTLYLQMSRLKSEDTAMYYCARHDPLTGPPFFAMDYWGQGTSVTVSS
VL: DIQMTQSPSSLSASLGGKVTISCKASQGINQYIAWYQLKPGKGPRLLIHYTSTLQPGVPSRFSGSGSGRDYSFSISNLEPEDIASYYCLQYDNLWTFGGGTKLEIK
notes: Murine hybridoma monoclonal antibody; the murine constant regions are not; In the cell ELISA it was detected with goat anti-mouse IgG-HRP; also called 鼠源mAb29; 鼠源抗体mAb29
Take B1: the binding result in test [1] and in test [2] was “binds” each time.

B2: mAb53 (antibody, V domains shown)
VH: QVQLQQPGAELVKPGASVKMSCKASGYTFTSYWITWVKQRPGQGLEWIGNIHPGSSTTNYNEKFKSKATLTVHTSSSTVYMQLTSLTSEDSAVYYCAREVGDYWGQGTSVTVSS
VL: DILLTQSPAILSVSPGERASFSCRASQIIGTSIHWYQQRTNGSPRLLIKYVSESISGIPSRFSGSGSGTDFTLSINSVESEDIADYYCQQSHSWPFTFGGGTKL
notes: Murine hybridoma monoclonal antibody; the murine constant regions are not; also called 鼠源mAb53; 鼠源抗体mAb53
Turning to B2, the binding result in test [1] and in test [2] was “binds” throughout.

B3: hRS7 (antibody, human IgG1, kappa, V domains shown)
VH: QVQLQQSGSELKKPGASVKVSCKASGYTFTNYGMNWVKQAPGQGLKWMGWINTYTGEPTYTDDFKGRFAFSLDTSVSTAYLQISSLKADDTAVYFCARGGFGSSYWYFDVWGQGSLVTVSS
VL: DIQLTQSPSSLSASVGDRVSITCKASQDVSIAVAWYQQKPGKAPKLLIYSASYRYTGVPDRFSGSGSGTDFTLTISSLQPEDFAVYYCQQHYITPLTFGAGTKVEIKR
B3: in test [3], the “IC50(nM), DT3C内吞杀伤实验 on FaDu cells” value is 0.069 nM and the “Imax(%), DT3C内吞杀伤实验 on FaDu cells” value amounted to 97.7%.

B4: TINA (antibody, human IgG1, kappa, V domains shown)
VH: QVQLVQSGAEVKKPGASVKVSCKASGYTFTTAGMQWVRQAPGQGLEWMGWINTHSGVPKYAEDFKGRVTISADTSTSTAYLQLSSLKSEDTAVYYCARSGFGSSYWYFDVWGQGTLVTVSS
VL: B3 VL with L4M, S20T, I31T, D60S, A100Q, V104L
notes: Control antibody built according to WO2015098099A1; also called TINA抗体; 阳性对照抗体TINA
Broadly, the Kd is the constant that tells how readily two partners part at equilibrium. The low end stands for tighter binding, the high end for weaker binding. Turning to B4, binding in test [4] was put at a Kd of 17 nM.

B5: hu29-12 (antibody, human IgG1, kappa, V domains shown)
VH: EVKLVESGGGLVQPGGSLRLSCAASGFSFSDYYMYWVRQAPGKGLEWVANIDNVGDTTYYPDTVKGRFTISRDNAKNSLYLQMNSLRAEDTAVYYCARHDPLTGPPFFAMDYWGQGTTVTVSS
VL: DIQMTQSPSSLSASVGDRVTITCKASQGINQYIAWYQQKPGKGPKLLIHYTSTLQPGVPSRFSGSGSGRDYTFTISSLQPEDIATYYCLQYDNLWTFGGGTKVEIKR
notes: also called mAb29 VH4 + VL3
In the case of B5, in test [3], the “IC50(nM), DT3C内吞杀伤实验 on FaDu cells” value was found to be 0.0094 nM and the “Imax(%), DT3C内吞杀伤实验 on FaDu cells” value stood at 100%. In addition, the Kd in test [4] was 0.202 nM.

B6: hu53-02 (antibody, human IgG1, kappa, V domains shown)
VH: EVQLVQSGAEVKKPGASVKVSCKASGYTFTSYWITWVRQAPGQGLEWMGNIHPGSSTTNYNEKFKSRVTMTRDTSTSTVYMELSSLRSEDTAVYYCAREVGDYWGQGTTVTVSS
VL: EIVLTQSPATLSLSPGERATLSCRASQIIGTSIHWYQQKPGQAPRLLIKYVSESISGIPARFSGSGSGTDFTLTISSLEPEDFAVYYCQQSHSWPFTFGGGTKVEIKR
notes: also called mAb53 VH1 + VL2
Consider B6, for which, in test [3], the “IC50(nM), DT3C内吞杀伤实验 on FaDu cells” value was determined as 0.0643 nM and the “Imax(%), DT3C内吞杀伤实验 on FaDu cells” value is 97.5%. This molecule also had a Kd in test [4] of 0.691 nM.
